The results in this text go back to EP3370777B1.

This test addresses His-tagged eukaryotic Elongation Factor 2 (eEF2) expressed in S. cerevisiae. Briefly: cell-based or functional assay.

In turn, “recombinant Exotoxin A (SEQ ID NO: 4), expressed in E. coli NiCo21(DE3) as His-tagged SUMO fusion, SUMO-tag removed (enzyme)” gave an ADP-ribosylation activity EC50 [µg/µl] (Example 1, soluble fraction) of 0.6 µg/µL and an ADP-ribosylation activity EC50 [µg/µl] (Example 2, method of the invention) of 0.52 µg/µL.
